Assay results: publication PMC10070186, “Unusual peptide-binding proteins guide pyrroloindoline alkaloid formation in crocagin biosynthesis” (Nature Chemistry, 2023)

Columns and labels:
[1] = target: CgnE (Chondromyces crocatus CM c5); assay: MST; microscale thermophoresis of two components; which one was titrated is told only in Fig. 3c
[2] = target: CgnB (Chondromyces crocatus CM c5); assay: as above

Chain of CgnE (Chondromyces crocatus CM c5) (main, as listed by the source): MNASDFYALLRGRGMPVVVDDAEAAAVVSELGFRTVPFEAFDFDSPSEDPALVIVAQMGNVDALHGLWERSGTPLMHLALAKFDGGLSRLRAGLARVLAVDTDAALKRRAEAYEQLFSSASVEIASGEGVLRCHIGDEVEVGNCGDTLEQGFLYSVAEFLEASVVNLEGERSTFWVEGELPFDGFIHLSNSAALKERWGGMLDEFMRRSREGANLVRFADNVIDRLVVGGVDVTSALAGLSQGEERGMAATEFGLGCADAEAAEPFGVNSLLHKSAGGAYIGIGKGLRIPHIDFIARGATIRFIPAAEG

Kd [1]: 1800 nM
Kd [2]: 10.5 µM
Binder: MKKTIKQISAGDRSKKGNIYW (modifications not checked) [CgnA, crocagin precursor peptide]
